This is an account of results in PMC6440994, “Human RAD51 paralogue SWSAP1 fosters RAD51 filament by regulating the anti-recombinase FIGNL1 AAA+ ATPase” (Nature Communications, 2019).

The experiment deals with T1, RAD51 (protein of the in vitro assays) (UniProt Q06609 1-339).
T1 sequence (looked up): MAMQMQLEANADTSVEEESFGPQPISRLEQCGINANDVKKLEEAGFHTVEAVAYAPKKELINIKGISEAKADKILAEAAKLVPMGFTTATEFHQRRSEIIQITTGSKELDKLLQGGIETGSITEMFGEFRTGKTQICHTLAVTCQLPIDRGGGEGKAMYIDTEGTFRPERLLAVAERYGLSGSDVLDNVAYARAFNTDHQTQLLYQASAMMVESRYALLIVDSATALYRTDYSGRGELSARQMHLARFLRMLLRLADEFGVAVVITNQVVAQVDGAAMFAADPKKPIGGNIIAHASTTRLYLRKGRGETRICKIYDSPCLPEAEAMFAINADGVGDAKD
As to the kind of experiment: cell-based or functional assay.

B1: FIGNL1ΔN-EE (F295E, A298E) (domain or fragment, human, UniProt Q6PIW4 285-674, looked up)
chain: GPKEDSSLPTEKTEKEQLWVDQQKKYHQPQRASGSSYGGVKKSLGASRSRGILGKFVPPIPKQDGGEQNGGMQCKPYGAGPTEPAHPVDERLKNLEPKMIELIMNEIMDHGPPVNWEDIAGVEFAKATIKEIVVWPMLRPDIFTGLRGPPKGILLFGPPGTGKTLIGKCIASQSGATFFSISASSLTSKWVGEGEKMVRALFAVARCQQPAVIFIDEIDSLLSQRGDGEHESSRRIKTEFLVQLDGATTSSEDRILVVGATNRPQEIDEAARRRLVKRLYIPLPEASARKQIVINLMSKEQCCLSEEEIEQIVQQSDAFSGADMTQLCREASLGPIRSLQTADIATITPDQVRPIAYIDFENAFRTVRPSVSPKDLELYENWNKTFGCGK
B1: the “activity to dissociate RAD51 from ssDNA relative to wild-type FIGNL1ΔN (0.2 µM protein)” value stood at 3.2 fold decrease.
